Results from PMC6894054.

Tested on: ILF3 mouse-human dsRBM2 (SPR) (mouse-human (so in the source))
Assay: SPR
Conditions: ELISA and SPR buffers not given in the material (SPR: Biacore T100, biotin-RNA on streptavidin chip); biopanning: TENT (10 mM Tris-HCl pH 8.0, 1 mM EDTA, 250 mM)

invSINEB2 of AS Uchl1
Kd: 94.9 nM
